Results taken from the supplement of paper PMC10065799, “High-throughput profiling of sequence recognition by tyrosine kinases and SH2 domains using bacterial peptide display” (eLife, 2023).

How the values were obtained:
EPHB2 = EPHB2 (UniProt P29323); test: phosphorylation enrichment, bacterial display (enrichment ratio); higher = better substrate or ligand; peptides without Tyr show the background
MERTK = MERTK (UniProt Q12866); test: as above
Hck = Hck (UniProt P08631); test: as above
c-Src = test: as above
Fes = Fes (UniProt P07332); test: as above
Fes, sequence (P07332 whole entry, looked up): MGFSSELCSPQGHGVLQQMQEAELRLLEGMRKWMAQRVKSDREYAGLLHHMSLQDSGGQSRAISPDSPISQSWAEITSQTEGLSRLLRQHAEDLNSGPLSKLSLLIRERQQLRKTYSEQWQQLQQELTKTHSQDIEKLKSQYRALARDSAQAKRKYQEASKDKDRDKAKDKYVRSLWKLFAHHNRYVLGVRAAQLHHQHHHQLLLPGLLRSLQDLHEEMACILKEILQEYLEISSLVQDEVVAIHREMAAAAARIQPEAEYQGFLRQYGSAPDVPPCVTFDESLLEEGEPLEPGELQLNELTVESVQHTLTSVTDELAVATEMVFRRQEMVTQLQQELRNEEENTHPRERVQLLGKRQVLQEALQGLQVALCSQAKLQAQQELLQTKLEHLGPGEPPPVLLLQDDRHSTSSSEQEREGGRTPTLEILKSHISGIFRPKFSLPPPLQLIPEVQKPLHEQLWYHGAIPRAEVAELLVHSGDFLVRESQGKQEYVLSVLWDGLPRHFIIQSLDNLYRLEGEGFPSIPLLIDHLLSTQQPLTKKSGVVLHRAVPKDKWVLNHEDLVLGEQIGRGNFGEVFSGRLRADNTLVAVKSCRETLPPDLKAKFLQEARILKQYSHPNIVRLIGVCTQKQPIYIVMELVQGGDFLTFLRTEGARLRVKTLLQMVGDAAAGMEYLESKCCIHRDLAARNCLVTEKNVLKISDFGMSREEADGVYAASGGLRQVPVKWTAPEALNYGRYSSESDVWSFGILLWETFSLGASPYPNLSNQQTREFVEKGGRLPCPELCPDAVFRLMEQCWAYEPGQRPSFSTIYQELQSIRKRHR

FGFR1 = FGFR1 (UniProt P11362); test: as above
FGFR1, sequence (P11362 whole entry, looked up): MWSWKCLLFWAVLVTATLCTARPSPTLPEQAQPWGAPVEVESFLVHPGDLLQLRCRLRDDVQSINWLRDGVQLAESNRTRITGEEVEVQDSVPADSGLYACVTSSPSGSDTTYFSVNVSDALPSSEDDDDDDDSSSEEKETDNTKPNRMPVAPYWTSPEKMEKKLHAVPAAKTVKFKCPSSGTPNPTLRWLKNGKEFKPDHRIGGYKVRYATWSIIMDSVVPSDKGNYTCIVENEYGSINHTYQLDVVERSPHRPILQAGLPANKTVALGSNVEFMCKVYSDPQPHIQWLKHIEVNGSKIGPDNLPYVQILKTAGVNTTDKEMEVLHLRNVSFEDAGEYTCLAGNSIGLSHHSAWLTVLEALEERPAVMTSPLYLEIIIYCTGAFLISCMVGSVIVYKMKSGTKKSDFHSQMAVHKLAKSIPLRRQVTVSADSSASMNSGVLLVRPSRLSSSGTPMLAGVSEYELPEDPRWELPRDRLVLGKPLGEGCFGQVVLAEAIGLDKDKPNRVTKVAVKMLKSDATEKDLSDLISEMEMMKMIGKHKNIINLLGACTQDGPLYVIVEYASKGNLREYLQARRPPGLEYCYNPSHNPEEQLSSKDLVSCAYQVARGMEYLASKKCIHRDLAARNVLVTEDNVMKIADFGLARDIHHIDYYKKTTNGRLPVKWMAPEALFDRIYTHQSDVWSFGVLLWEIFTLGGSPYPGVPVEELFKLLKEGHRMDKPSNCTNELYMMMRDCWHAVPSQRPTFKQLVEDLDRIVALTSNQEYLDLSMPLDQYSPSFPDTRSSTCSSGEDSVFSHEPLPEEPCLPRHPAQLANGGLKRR

Fer (mouse) = test: as above
EPHB1 = EPHB1 (UniProt P54762); test: as above
c-Abl (mouse) = test: as above
Jak2 = Jak2 (UniProt O60674); test: as above
Jak2, sequence (O60674 whole entry, looked up): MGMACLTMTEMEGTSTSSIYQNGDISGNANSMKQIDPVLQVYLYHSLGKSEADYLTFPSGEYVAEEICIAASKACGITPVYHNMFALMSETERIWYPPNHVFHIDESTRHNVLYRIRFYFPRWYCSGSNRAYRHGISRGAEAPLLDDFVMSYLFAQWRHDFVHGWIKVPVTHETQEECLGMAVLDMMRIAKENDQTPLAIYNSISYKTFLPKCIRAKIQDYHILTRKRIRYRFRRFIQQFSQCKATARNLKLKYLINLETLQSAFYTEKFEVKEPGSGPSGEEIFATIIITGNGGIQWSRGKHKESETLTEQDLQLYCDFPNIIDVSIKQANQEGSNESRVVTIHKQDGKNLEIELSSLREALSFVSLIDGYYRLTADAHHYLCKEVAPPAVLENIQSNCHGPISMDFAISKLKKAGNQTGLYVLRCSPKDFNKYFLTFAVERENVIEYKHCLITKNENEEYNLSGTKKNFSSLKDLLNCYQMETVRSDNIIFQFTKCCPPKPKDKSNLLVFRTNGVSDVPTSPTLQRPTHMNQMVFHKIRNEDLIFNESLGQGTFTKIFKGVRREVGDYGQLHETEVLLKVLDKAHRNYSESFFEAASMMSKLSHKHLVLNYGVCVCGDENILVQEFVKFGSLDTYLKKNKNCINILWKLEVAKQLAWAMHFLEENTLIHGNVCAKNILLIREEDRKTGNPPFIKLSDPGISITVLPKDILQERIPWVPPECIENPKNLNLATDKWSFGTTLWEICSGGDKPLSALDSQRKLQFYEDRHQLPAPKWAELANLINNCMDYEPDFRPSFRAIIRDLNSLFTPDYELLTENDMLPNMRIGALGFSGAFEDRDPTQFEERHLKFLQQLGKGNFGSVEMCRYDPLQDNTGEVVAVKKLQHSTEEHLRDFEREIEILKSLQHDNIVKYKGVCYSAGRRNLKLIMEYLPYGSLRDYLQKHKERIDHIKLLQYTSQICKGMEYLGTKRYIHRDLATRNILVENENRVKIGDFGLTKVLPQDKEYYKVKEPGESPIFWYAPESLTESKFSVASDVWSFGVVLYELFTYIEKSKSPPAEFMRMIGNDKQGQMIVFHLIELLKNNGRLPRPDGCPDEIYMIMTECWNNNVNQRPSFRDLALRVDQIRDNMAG

FGFR3 = FGFR3 (UniProt P22607); test: as above
FGFR3, sequence (P22607 whole entry, looked up): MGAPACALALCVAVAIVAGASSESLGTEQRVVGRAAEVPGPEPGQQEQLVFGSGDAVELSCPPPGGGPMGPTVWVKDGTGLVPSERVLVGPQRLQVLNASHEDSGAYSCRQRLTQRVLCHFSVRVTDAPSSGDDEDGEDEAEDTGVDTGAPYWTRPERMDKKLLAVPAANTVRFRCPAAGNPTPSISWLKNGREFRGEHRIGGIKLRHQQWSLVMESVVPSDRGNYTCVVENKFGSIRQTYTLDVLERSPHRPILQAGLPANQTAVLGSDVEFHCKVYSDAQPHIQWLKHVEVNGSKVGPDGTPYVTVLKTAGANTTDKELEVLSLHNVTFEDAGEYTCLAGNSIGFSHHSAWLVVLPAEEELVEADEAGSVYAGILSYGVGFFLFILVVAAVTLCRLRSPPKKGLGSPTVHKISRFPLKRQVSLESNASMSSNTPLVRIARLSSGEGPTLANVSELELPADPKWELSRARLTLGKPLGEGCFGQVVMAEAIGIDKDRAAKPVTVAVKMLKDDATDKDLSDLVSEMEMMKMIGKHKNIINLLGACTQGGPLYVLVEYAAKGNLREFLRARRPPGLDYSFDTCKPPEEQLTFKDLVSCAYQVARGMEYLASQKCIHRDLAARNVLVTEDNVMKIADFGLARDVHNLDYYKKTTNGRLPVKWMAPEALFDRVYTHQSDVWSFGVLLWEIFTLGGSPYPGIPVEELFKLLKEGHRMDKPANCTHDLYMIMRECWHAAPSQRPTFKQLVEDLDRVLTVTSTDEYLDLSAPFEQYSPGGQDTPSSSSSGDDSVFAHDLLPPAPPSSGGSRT

AncSZ = test: as above
Fyn = Fyn (UniProt P06241); test: as above
Fyn, sequence (P06241 whole entry, looked up): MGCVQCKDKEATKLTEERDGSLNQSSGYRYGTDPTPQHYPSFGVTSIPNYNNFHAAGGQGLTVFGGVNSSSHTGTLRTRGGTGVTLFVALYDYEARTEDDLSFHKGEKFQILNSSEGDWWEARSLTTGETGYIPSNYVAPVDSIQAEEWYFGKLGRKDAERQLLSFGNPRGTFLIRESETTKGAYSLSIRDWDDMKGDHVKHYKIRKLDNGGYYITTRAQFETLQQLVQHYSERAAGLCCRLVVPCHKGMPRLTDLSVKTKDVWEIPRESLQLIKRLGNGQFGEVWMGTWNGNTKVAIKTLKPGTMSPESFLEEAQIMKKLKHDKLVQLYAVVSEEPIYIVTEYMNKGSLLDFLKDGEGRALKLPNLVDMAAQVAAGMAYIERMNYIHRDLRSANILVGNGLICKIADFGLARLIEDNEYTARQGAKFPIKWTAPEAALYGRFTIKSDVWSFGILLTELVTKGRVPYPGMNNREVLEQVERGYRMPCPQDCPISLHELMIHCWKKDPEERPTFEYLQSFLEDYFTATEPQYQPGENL

c-Src SH2 = test: SH2 binding enrichment of the phosphorylated peptide, bacterial display (enrichment ratio); higher = better substrate or ligand; peptides without Tyr show the background
Grb2 SH2 = Grb2 SH2 (UniProt P62993); test: as above
Grb2 SH2, sequence (P62993 whole entry, looked up): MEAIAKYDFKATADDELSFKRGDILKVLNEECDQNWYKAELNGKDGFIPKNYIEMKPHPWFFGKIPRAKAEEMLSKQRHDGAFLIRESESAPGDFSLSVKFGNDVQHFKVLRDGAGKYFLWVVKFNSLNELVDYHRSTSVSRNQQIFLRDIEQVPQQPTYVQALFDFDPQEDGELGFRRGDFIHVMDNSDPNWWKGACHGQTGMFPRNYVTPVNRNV

SHP2-C SH2 = test: as above
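Wherever SH2 binding enrichment of the phosphorylated peptide, bacterial display is given: peptide library displayed on the E. coli surface as eCPX fusions, selected cells deep-sequenced, score is each peptide's frequency after selection divided by its frequency in the input.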
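Wherever phosphorylation enrichment, bacterial display is given: 11-residue human phosphosite peptides and single-mutation variants displayed on the E. coli surface, counted by deep sequencing, each peptide's frequency after selection divided by its frequency in the unselected input library; frequency after pTyr selection over input frequency; kinase dosed for 20-30% of maximal phosphorylation in three min.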

Hck, sequence (P08631 whole entry, looked up): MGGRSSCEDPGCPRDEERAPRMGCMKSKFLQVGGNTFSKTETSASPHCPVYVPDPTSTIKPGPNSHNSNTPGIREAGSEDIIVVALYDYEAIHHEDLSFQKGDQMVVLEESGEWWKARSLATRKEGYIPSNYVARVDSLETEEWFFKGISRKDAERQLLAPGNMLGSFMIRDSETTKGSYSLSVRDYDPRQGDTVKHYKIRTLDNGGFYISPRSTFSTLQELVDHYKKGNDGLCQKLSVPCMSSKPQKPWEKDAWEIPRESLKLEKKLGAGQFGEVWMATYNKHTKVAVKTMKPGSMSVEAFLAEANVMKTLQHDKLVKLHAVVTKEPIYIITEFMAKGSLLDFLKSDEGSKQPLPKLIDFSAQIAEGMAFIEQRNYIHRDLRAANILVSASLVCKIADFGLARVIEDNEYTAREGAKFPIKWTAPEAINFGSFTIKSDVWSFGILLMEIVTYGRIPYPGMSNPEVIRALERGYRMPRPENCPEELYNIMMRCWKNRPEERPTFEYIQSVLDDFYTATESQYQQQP

Sequence | phosphorylation enrichment (EPHB2) | phosphorylation enrichment (MERTK) | phosphorylation enrichment (Hck) | phosphorylation enrichment (c-Src) | phosphorylation enrichment (Fes) | phosphorylation enrichment (FGFR1) | phosphorylation enrichment (Fer (mouse)) | phosphorylation enrichment (EPHB1) | phosphorylation enrichment (c-Abl (mouse)) | phosphorylation enrichment (Jak2) | phosphorylation enrichment (FGFR3) | phosphorylation enrichment (AncSZ) | phosphorylation enrichment (Fyn) | SH2 binding enrichment (c-Src SH2) | SH2 binding enrichment (Grb2 SH2) | SH2 binding enrichment (SHP2-C SH2)
MDNQEYKDAYK [BRDT_Y331] | 0.402 | 0.445 | 0.474 | 0.368 | 1.12 | 0.485 | 0.456 | 0.546 | 0.677 | 0.901 | 0.652 | 0.932 | 0.417 | 0.499 | 0.814 | 1.05
MECLPYGSLRD [JAK2_Y934_Y931C] | 0.577 | 0.409 | 0.711 | 1.65 | 1.29 | 0.522 | 0.669 | 0.598 | 0.75 | 1.07 | 0.794 | 1.08 | 0.753 | 0.467 | 0.785 | 0.468
MFCASYDTKQE [F10_Y407_G406S] | 0.717 | 0.552 | 0.554 | 0.511 | 1.17 | 0.561 | 0.571 | 0.536 | 0.731 | 0.986 | 0.746 | 1.01 | 0.558 | 0.733 | 0.774 | 0.749
MFRAGYDTKQE [F10_Y407_C404R] | 0.447 | 0.335 | 0.383 | 0.332 | 0.761 | 0.379 | 0.391 | 0.475 | 0.497 | 0.589 | 0.448 | 0.671 | 0.395 | 0.5 | 0.796 | 0.872
MGRVKYGAFIN [GLB1_Y485_N484K_YF] | 0.376 | 0.443 | 0.439 | 0.458 | 0.701 | 0.402 | 0.348 | 0.368 | 0.532 | 0.528 | 0.453 | 0.566 | 0.382 | 1.23 | 1.62 | 1.59
MHFSNYVSKGS [PDGFRA_Y849_D846Y_YF] | 0.439 | 0.381 | 0.457 | 0.384 | 0.578 | 0.394 | 0.367 | 0.604 | 0.406 | 0.489 | 0.565 | 0.522 | 0.495 | 0.551 | 0.831 | 0.578
MKKKIYAMGGG [GAN_Y424] | 0.302 | 0.432 | 0.414 | 0.393 | 0.465 | 0.376 | 0.389 | 0.335 | 0.519 | 0.39 | 0.341 | 0.397 | 0.297 | 0.679 | 1.15 | 0.979
MKNDLYQTPLH [NFKB1_Y582_R578K] | 1.11 | 1.81 | 4.13 | 1.63 | 0.695 | 0.473 | 2.2 | 0.668 | 5.91 | 0.727 | 0.502 | 1.4 | 1.16 | 0.585 | 0.774 | 0.604
MKSIKYMDKEV [CCDC60_Y41_I46V] | 0.316 | 0.334 | 0.399 | 0.375 | 0.554 | 0.437 | 0.355 | 0.325 | 0.492 | 0.567 | 0.545 | 0.664 | 0.344 | 0.413 | 0.742 | 0.515
MNPPPYSQFLS [FGF23_Y154] | 0.44 | 0.543 | 0.511 | 1.38 | 0.706 | 0.508 | 0.711 | 0.467 | 0.536 | 0.687 | 0.567 | 0.585 | 0.478 | 0.541 | 0.742 | 0.489
MPIPMYDASQA [CARMIL1_Y637] | 1.01 | 0.566 | 0.552 | 0.46 | 0.73 | 0.595 | 0.565 | 0.867 | 0.824 | 0.717 | 0.629 | 0.751 | 0.643 | 0.537 | 0.887 | 0.75
MPIPMYDGSQA [CARMIL1_Y637_A639G] | 0.634 | 0.447 | 0.53 | 0.44 | 0.777 | 0.434 | 0.402 | 1.1 | 0.639 | 0.963 | 0.532 | 0.623 | 0.52 | 0.452 | 0.746 | 0.53
MRAIIYNSSTA [PLEKHA7_Y243_L241I] | 0.609 | 0.47 | 0.501 | 0.447 | 0.838 | 0.554 | 0.528 | 0.473 | 1.04 | 0.765 | 0.623 | 0.812 | 0.509 | 0.456 | 0.679 | 0.665
NAPNSYGRRPS [CDKN2A_Y44_I49S] | 0.593 | 0.499 | 0.512 | 0.49 | 0.849 | 0.46 | 0.588 | 0.481 | 0.63 | 0.711 | 0.541 | 0.805 | 0.582 | 0.747 | 0.774 | 0.533
NFDRVYIYHLR [MYOF_Y1137] | 0.618 | 0.528 | 0.782 | 1.01 | 1.23 | 0.575 | 0.612 | 0.593 | 0.718 | 1.03 | 0.755 | 1.19 | 0.858 | 0.896 | 1.23 | 5.25
NFGTNYRVGSS [CPO_Y278_K273N_YF] | 0.515 | 0.42 | 0.482 | 0.442 | 0.716 | 0.508 | 0.429 | 0.417 | 0.525 | 0.534 | 0.424 | 0.602 | 0.43 | 0.418 | 0.88 | 0.634
NGQALYAACQT [XDH_Y1092_V1091L] | 9.92 | 6.34 | 4.99 | 3.35 | 0.916 | 0.554 | 6.91 | 9.24 | 2.26 | 0.687 | 0.562 | 0.775 | 3.2 | 0.456 | 0.782 | 0.787

Sequence | phosphorylation enrichment (EPHB2) | phosphorylation enrichment (MERTK) | phosphorylation enrichment (Hck) | phosphorylation enrichment (c-Src) | phosphorylation enrichment (Fes) | phosphorylation enrichment (FGFR1) | phosphorylation enrichment (Fer (mouse)) | phosphorylation enrichment (EPHB1) | phosphorylation enrichment (c-Abl (mouse)) | phosphorylation enrichment (Jak2) | phosphorylation enrichment (FGFR3) | phosphorylation enrichment (AncSZ) | phosphorylation enrichment (Fyn) | SH2 binding enrichment (c-Src SH2) | SH2 binding enrichment (Grb2 SH2) | SH2 binding enrichment (SHP2-C SH2)
NIQKKYFRAIL [CHD7_Y1217_YF] | 0.383 | 0.458 | 0.421 | 0.335 | 0.655 | 0.436 | 0.399 | 0.37 | 0.43 | 0.718 | 0.433 | 0.625 | 0.352 | 0.566 | 0.96 | 0.838
NIWDSYTTNKV [GNB1_Y85_I80N] | 0.488 | 0.387 | 0.497 | 0.437 | 0.9 | 0.497 | 0.414 | 0.515 | 0.656 | 0.663 | 0.658 | 1 | 0.416 | 0.425 | 0.983 | 0.709
NKFTTYLPWLP [C9orf24_Y126_R129W_YF] | 6.61 | 1.4 | 8.27 | 4.54 | 1.06 | 1.43 | 6.84 | 3.63 | 1.6 | 1.75 | 1.25 | 1.04 | 5.73 | 0.815 | 1.19 | 0.89
NKPTVCGVSPN [ABL1_Y226_Y226C] | 0.536 | 0.467 | 0.404 | 0.5 | 0.919 | 0.526 | 0.441 | 0.476 | 0.996 | 0.759 | 0.589 | 0.655 | 0.439 | 0.559 | 0.952 | 0.841
NKYTTYLPRLP [C9orf24_Y126] | 0.386 | 0.483 | 0.714 | 0.616 | 0.684 | 0.402 | 0.38 | 0.454 | 0.625 | 0.706 | 0.418 | 0.575 | 0.51 | 0.991 | 0.905 | 0.776
NLFIEYPTGSG [IRF2BPL_Y423_K418N] | 0.548 | 0.519 | 0.497 | 0.56 | 1.02 | 0.582 | 0.639 | 0.504 | 0.95 | 0.828 | 0.7 | 1.14 | 0.568 | 0.399 | 0.681 | 0.551
NNPAYYVLEGV [INPPL1_Y987] | 0.69 | 9.04 | 1.11 | 1.63 | 0.997 | 15.9 | 0.525 | 0.764 | 0.711 | 4.89 | 13.1 | 1.15 | 1.65 | 3.65 | 0.803 | 1.02
NQDRTYFERVR [SPEN_Y632_S635R_YF] | 0.411 | 0.377 | 0.812 | 0.567 | 0.648 | 0.421 | 0.401 | 0.473 | 0.538 | 0.601 | 0.522 | 0.607 | 0.419 | 0.572 | 0.857 | 0.547
NRDNTYNRVSE [FGA_Y127] | 0.407 | 0.329 | 0.457 | 0.405 | 0.728 | 0.38 | 0.395 | 0.472 | 0.762 | 0.678 | 0.469 | 0.603 | 0.425 | 1.59 | 0.758 | 0.775
NRLTDYFEPLL [BBS10_Y536_YF] | 1.16 | 0.381 | 0.548 | 0.406 | 0.993 | 6.99 | 0.468 | 2.54 | 0.675 | 0.959 | 4.38 | 1.71 | 0.755 | 0.711 | 1.02 | 0.842
NSIGNYFKPWF [DHCR24_Y299_YF] | 5.26 | 4.54 | 0.492 | 0.458 | 0.99 | 1.64 | 0.424 | 8.66 | 8.06 | 7.86 | 1.41 | 1.03 | 0.45 | 0.899 | 1.05 | 5.38
NTADYYDLYGG [PTPN11_Y63_G60A] | 14.7 | 3.04 | 5.89 | 5.99 | 1.47 | 16.2 | 1.59 | 14.9 | 1.13 | 3.39 | 15.3 | 3.44 | 6.09 | 0.782 | 1.05 | 0.81
NTDETYCIDNE [TUBB2B_Y200] | 0.797 | 0.598 | 0.728 | 0.809 | 1.57 | 0.64 | 0.724 | 0.813 | 0.982 | 1.53 | 1.14 | 1.47 | 0.795 | 0.544 | 0.952 | 0.781
NTGGYYDLYGG [PTPN11_Y63_D61G] | 3.74 | 7.92 | 8.38 | 5.05 | 1.18 | 13.3 | 3.33 | 1.98 | 0.756 | 5.82 | 10.8 | 1.51 | 8.66 | 5.92 | 0.928 | 0.871
NTGVFYDLFGG [PTPN11_Y63_D61V_YF] | 0.986 | 7.01 | 2.84 | 4.82 | 1.12 | 0.455 | 2.86 | 0.609 | 0.797 | 0.958 | 0.638 | 0.99 | 3.21 | 0.743 | 0.59 | 0.766
NTILLYHIMAW [GPR143_Y157_S152N] | 3.9 | 4.42 | 1.56 | 1.27 | 1.62 | 3.19 | 0.89 | 5.65 | 1.25 | 2.07 | 3.15 | 1.52 | 0.8 | 0.577 | 0.801 | 0.829
